Measured values: PMC8324831, “A synthetic nanobody targeting RBD protects hamsters from SARS-CoV-2 infection” (Nature Communications, 2021)
Positions count from the first letter of the chain named.

B1: SR51 (VHH)
VHH: QVQLVESGGGLVQAGGSLRLSCAASGFPVWESYMRWYRQAPGKEREWVAAIQSNGNNTWYADSVKGRFTISRDNAKNTVYLQMNSLKPEDTAVYYCVVYVGYEYHGQGTQVTVS
B2: MR13 (VHH)
VHH: QVQLVESGGGLVQAGGSLRLSCAASGFPVKNMNMHWYRQAPGKEREWVAAIYSYGVETHYADSVKGRFTISRDNAKNTVYLQMNSLKPEDTAVYYCNVKDWGSYMNWYDYWGQGTQVTVS
B3: MR2 (VHH)
VHH: QVQLVESGGGLVQAGGSLRLSCAASGFPVYFSYMAWYRQAPGKEREWVAAINSEGDSTTYADSVKGRFTISRDNAKNTVYLQMNSLKPEDTAVYYCNVKDYGWYNSQYDYWGQGTQVTVS
B4: MR1 (VHH)
VHH: QVQLVESGGGLVQVGGSLRLSCAASGFPVYHSIMHWYRQAPGKEREWVAAIYSSGAHTYYADSVKGRFTISRDNAKNTVYLQMNSLKPEDTAVYYCNVKDGGNWDHTYDYWGQGTQVTVS
B5: SR59 (VHH)
VHH: QVQLVESGGGLVQAGGSLRLSCAASGFPVKTSRMYWYRQAPGKEREWVAAIISYGSVTFYADSVKGRFTISRDNAKNTVYLQMNSLKPEDTAVYYCYVYVGAQYWGQGTQVTVS
B6: MR11 (VHH)
VHH: QVQLVESGGGLVQAGGSLRLSCAASGFPVEWTSMVWYRQAPGKEREWVAAIYSAGHHTKYADSVKGRFTISRDNAKNTVYLQMNSLKPEDTAVYYCNVKDYGHDRSNYDYWGQGTQVTVS
B7: SR49 (VHH)
VHH: QVQLVESGGGLVQAGGSLRLSCAASGFPVFHAYMAWYRQAPGKEREWVAAIESDGSSTHYADSVKGRFTISRDNAKNTVYLQMNSLKPEDTSVYYCAVLVGFWYAGQGTQVTVS
B8: SR57 (VHH)
VHH: B7 VHH with F30E, H31Q, Y33E, E52V, D54Y, S56H, H59Y, S92A, L99F
B9: SR61 (VHH)
VHH: B7 VHH with F30D, H31I, Y33E, E52G, D54Q, S56M, S57T, S92A, L99H
B10: SR60 (VHH)
VHH: B7 VHH with F30E, Y33Q, E52Q, D54Y, S57T, H59Y, S92A, L99H
B11: SR45 (VHH)
VHH: QVQLVESGGGLVQAGGSLRLSCAASGFPVDNATMAWYRQAPGKEREWVAAIHSIGGYTTYADSVKGRFTISRDNAKNTVYLQMNSLKPEDTAVYYCVGVGKHYYGQGTQVTVS
B12: MR8 (VHH)
VHH: QVQLVESGGGLVQAGGSLRLSCAASGFPVEWAHMHWYRQAPGKEREWVAAIVSAGHYTVYADSVKGRFTISRDNAKNTVYLQMNSLKPEDTAVYYCNVKDWGSSNQYYDYWGQGTQVTVS
B13: MR12 (VHH)
VHH: B12 VHH with A32S, A54T, H56E, V59K, G102Y, S103G, S104Q, N105A, Q106K, Y107S
B14: MR14 (VHH)
VHH: B12 VHH with E30M, W31Y, A32T, A54L, H56E, V59T, S103A, S104A, Q106K
B15: SR52 (VHH)
VHH: QVQLVESGGGLVQAGGSLRLSCAASGFPVNNMEMTWYRQAPGKEREWVAAIASDGSYTEYADSVKGRFTISRDNAKNTVYLQMNSLKPEDTAVYYCYVWVGKSYIGQGTQVTVS
B16: LR2 (VHH)
VHH: QVQLVESGGGSVQAGGSLRLSCAASGDINAIGYLGWFRQAPGKEREGVAALDTDEGQTYYADSVKGRFTVSLDNAKNTVYLQMNSLKPEDTALYYCAAAMNGYNEPLYSYDYEYWGQGTQVTVS
B17: MR5 (VHH)
VHH: QVQLVESGGGLVQAGGSLRLSCAASGFPVDAWEMAWYRQAPGKEREWVAAIRSFGRRTHYADSVKGRFTISRDNAKNTVYLQMNSLKPEDTAVYYCNVKDFGTHTQEYDYWGQGTQVTVS
B18: SR54 (VHH)
VHH: QVQLVESGGGLVQAGGSLRLSCAASGFPVSQARMHWYRQAPGKEREWVAAIGSSGDFTRYADSVKGRFTISRDNAKNTVYLQMNSLKPEDTAVYYCEVQVGQWYEGQGTQVTVS
B19: SR56 (VHH)
VHH: QVQLVESGGGLVQAGGSLSLSCAASGFPVEHYGMYWYRQAPGKEREWVAAIRSDGQWTHYADSVKGRFTISRDNAKNTVYLQMNSLKPEDTAVYYCTVGVGSNYYGQGTQVTVS
B20: LR3 (VHH)
VHH: QVQLVESGGGSVQAGGSLRLSCAASGTINNITYLGWFRQAPGKEREGVAALITTSGYTYYADSVKGRFTVSLDNAKNTVYLQMNSLKPEDTALYYCAAASWGYEWPLVYDDYWYWGQGTQVTVS
B21: MR6 (VHH)
VHH: QVQLVESGGGLVQAGGSLRLSCAASGFPVEDTWMEWYRQAPGKEREWVAAITSWGFKTYYADSVKGRFTISRDNAKNTVYLQMNSLKPEDTAVYYCNVKDEGDTSASYDYWGQGTQVTVS
B22: MR16 (VHH)
VHH: B21 VHH with D31R, W54Y, F56Y, K57R, D103S, T104A, A106S, S107A
B23: MR9 (VHH)
VHH: B21 VHH with E30A, D31S, W54Y, F56Y, K57H, D103Y, T104F, A106T, S107N
B24: MR10 (VHH)
VHH: B21 VHH with E30A, D31N, W54Y, F56Y, K57R, D103A, S105T, A106K, S107V
B25: SR50 (VHH)
VHH: QVQLVESGGGLVQAGGSLRLNCAASGFPVAQAVMAWYRQALGKEREWVAAMHSTGTYTAYADSVKGRFTISRDNAKNTVYLQMNSLKPEDTAVYYCAVHVGFWYAGQGTQVTVS
B26: MR7 (VHH)
VHH: QVQLVESGGGLVQAGGSLRLSCAASGFPVNSWMEWYRQAPGKEREWVAAITSYGYKTYYADSVKGRFTISRDNAKNTVYLQMNSLKPEDTAVYYCNVKDEGYFSDEYDYWGQGTQVTVS
B27: MR15 (VHH)
VHH: B26 VHH with N30D, S31T, E100F, F103A, D105T, E106Y
B28: MR19 (VHH)
VHH: QVQLVESGGGLVQAGGSLRLSCAASGFPVRNTEHMYWYRQAPGKEREWVAAIFSMGRFTKYADSVKGRFTISRDNAKNTVYLQMNSLKPEDTAVYYCNVKDTGSFSEGYDYWGQGTQVTVS
B29: SR46 (VHH)
VHH: QVQLVESGGGLVQAGGSLRLSCAASGFPVFTENMHWYRQAPGKEREWVAAIYSYGVWTLYADSVKGRFTISRDNAKNTVYLQMNSLKPEDTAVYYCVVQVGEWYEGQGTQVTVS
B30: SR48 (VHH)
VHH: B18 VHH with S30N, A32N, R33N, G52Y, R59L, Q102F, E105T
B31: SR58 (VHH)
VHH: B29 VHH with F30K, T31Q, Y54T, V56N, W57F, V97A, E102Q
B32: SR55 (VHH)
VHH: B29 VHH with F30D, E32T, Y54S, V56G, W57F, V97T, Q99W, E102D
B33: SR53 (VHH)
VHH: B29 VHH with F30Y, T31S, E32Q, N33H, Y54N, V56T, W57Y, V97E, Q99N
B34: SR62 (VHH)
VHH: B29 VHH with T31Q, Y54Q, V56S, W57Y, V97E, Q99N, E102Q, E105Y
B35: SR47 (VHH)
VHH: B29 VHH with F30K, N33T, V56T, W57Y, V97E
B36: MR18 (VHH)
VHH: QVQLVESGGGLVQAGGSLRLSCAASGFPVWEHHMAWYRQAPGKEREWVAAITSKGRYTTYADSVKGRFTISRDNAKNTVYLQMNSLKPEDTAVYYCHVKDAGYFDAQYDYWGQGTQVTVS

Molecular target: SARS-CoV-2 S-RBD with Avi-tag and deca-His tag (residues 330-531) (SARS-CoV-2, UniProt P0DTC2, biotin on the Avi tag (BirA) where immobilised on streptavidin sensors or used in ELISA and FSEC)

Row | Binder | binding result
1 | B1 | binds
2 | B2 | binds
3 | B3 | binds
4 | B4 | binds
5 | B5 | binds
6 | B6 | binds
7 | B7 | binds
8 | B8 | binds
9 | B9 | binds
10 | B10 | binds
11 | B11 | binds
12 | B12 | binds
13 | B13 | binds
14 | B14 | binds
15 | B15 | binds
16 | B16 | binds
17 | B17 | binds
18 | B18 | binds

Row | Binder | binding result
19 | B19 | binds
20 | B20 | binds
21 | B21 | binds
22 | B22 | binds
23 | B23 | binds
24 | B24 | binds
25 | B25 | binds
26 | B26 | binds
27 | B27 | binds
28 | B28 | binds
29 | B29 | binds
30 | B30 | binds
31 | B31 | binds
32 | B32 | binds
33 | B33 | binds
34 | B34 | binds
35 | B35 | binds
36 | B36 | binds
